From patent US20170137467A1 (CHROMOTEK, published 2017)
Values belong to the binder of their own block, whether it stands above or below them. Ends that are not written are not given here. * marks the point of attachment. Biotin = O=C1N[C@H]2[C@H](CS[C@H]2CCCCC(=O)*)N1; ethylene glycol linker = not defined here

Assays:
[1] = target: T1, GFP with a C-terminal BC2 tag (GFPBC2T) (human, UniProt P42212 1-238 = GFP); assay: binding studies with GFPBC2T
T1 construct: Expressed in E. coli; also called C-terminally BC2-tagged GFP

[2] = target: T2, eGFP-PCNA with C-terminal BC2 tag (eGFP-PCNABC2T) (human, UniProt P12004 1-261); assay: immunocytochemistry on fixed HeLa cells expressing GFP-PCNABC2T
T2 construct: Expressed in HEK293T or HeLa cells; not shown: eGFP
Protocol: After 24 h, cells were washed once with PBS and fixed with 4% w/v paraformaldehyde (PFA) in PBS for 15 min at RT or with methanol for 15 min at −20° C. After removal of the fixative and washing twice with PBS, cells were blocked and permeabilized with 3% w/v BSA and 0.1% v/v Triton X-100 in PBS for 1 h at RT. […] Unbound nanobody and DAPI were removed by washing 3 times with a mixture of PBS and 6% v/v 5 M NaCl in H₂O. Images of FIG. 4 b and FIG. 10 b were acquired with an Image Xpress micro XL system. Confocal images of FIG. 10 a were acquired with an ImageXpress Micro Confocal.

[3] = target: T3, BC2T peptide (biotinylated) (human, reading uncertain); assay: BLI, biotinylated peptide on streptavidin biosensor, BC2-Nb in solution, 1:1 model
T3 construct: Immobilised on streptavidin biosensors; also called original BC2T; wildtype BC2T
T3 peptide: {Biotin-ethylene glycol linker}-PDRKAAVSHWQQ
Protocol: (§1) Biolayer interferometry (BLI)-based affinity measurements were used to assess two improved variations of the original BC2T sequence (a: […], pTag1 SEQ ID NO:33; b: […], pTag2 SEQ ID NO:34) in comparison with the original BC2T sequence (c: BC2T SEQ ID NO:4).
(§2) The shaking rate was 1200 rpm. As a reference, each peptide was also incubated with BLItz buffer only according to the protocol above. […] The sensor was regenerated by sequential dips into 10 mM glycine pH 2.0 and BLItz buffer (repeated three times). Raw data were analysed using the software BLItz Pro (fortéBio) and a 1:1 binding model.

[4] = target: T4, pTag1 peptide (biotinylated) (reading uncertain); assay: as above
T4 construct: Immobilised on streptavidin biosensors
T4 peptide: {Biotin-ethylene glycol linker}-PDRVRAVSHWSS
Protocol: as §1, §2

[5] = target: T5, pTag2 peptide (biotinylated) (reading uncertain); assay: as above
T5 construct: Immobilised on streptavidin biosensors
T5 peptide: {Biotin-ethylene glycol linker}-ADRVRAVSHWSS
Protocol: as §1, §2

BC2T S8D library peptide = target: T6, BC2T S8D library peptide (human); assay: peptide library pulldown on immobilized Nb, LC-MS of supernatant; ratio vs GFP-Nb control (1 = not captured, 0 = captured)
T6 construct: also called BC2TS8X: D
T6 peptide: Ac-PDRKAAVDHWQQ-NH2
Source text: (§3) In total, 12 different BC2T libraries displaying all 20 proteinogenic amino acids in one single position of the peptide were used in immunoprecipitation experiments. […] The direct comparison with the GFP-Nb made it possible to determine the quantitative degree of peptide capture without the need of labeled standards. […] The more peptide was captured the more the value approximates 0. It was not possible to discriminate between isoleucine (I) and leucine (L) peptide versions since these peptides are isobaric.
(§4) To investigate the binding specificity of the BC2T and derived mutants peptide libraries for each amino acid position of the sequence […] (SEQ ID NO:4) were synthesized with acetyl and amide groups located at the N-termini or C-termini respectively (Intavis). […] Incubations were performed in 300 μl PBS/0.01% CHAPS for 1 h on a HulaMixer (Life Technologies). Subsequent to a centrifugation step 10 μl supernatant were analyzed in a LC-MS procedure. Peptides were separated using an UltiMate3000 RSLCnano System (Thermo Scientific), composed of a C18 PepMap100μ-Precolumn (300 μm×5 mm; particle size: 5 μm; pore size: 100 Å—Thermo Scientific) and a C18 analytical column (Acclaim Rapid Separation LC (RSLC) Column: 150 mm×5 mm; particle size: 2.2 μm; pore size: 100 Å—Thermo Scientific). A step gradient was applied starting at 8% and ending after 20 min at 30% eluent B (80% acetonitrile, 20% H₂O, 0.1% formic acid).

BC2T S8E library peptide = target: T7, BC2T S8E library peptide (human); assay: as above
T7 construct: also called BC2TS8X: E
T7 peptide: Ac-PDRKAAVEHWQQ-NH2
Source text: as §3, §4

[6] = target: T8, BC2T Q11D library peptide (human); assay: as above
T8 peptide: Ac-PDRKAAVSHWDQ-NH2
Source text: as §3, §4

[7] = target: T9, BC2T Q12E library peptide (human); assay: as above
T9 peptide: Ac-PDRKAAVSHWQE-NH2
Source text: as §3, §4

[8] = target: T10, BC2T W10E library peptide (human); assay: as above
T10 construct: also called BC2TW10X: E
T10 peptide: Ac-PDRKAAVSHEQQ-NH2
Source text: as §3, §4

[9] = target: T11, BC2T W10D library peptide (human); assay: as above
T11 construct: also called BC2TW10X: D
T11 peptide: Ac-PDRKAAVSHDQQ-NH2
Source text: as §3, §4

BC2T H9E library peptide = target: T12, BC2T H9E library peptide (human); assay: as above
T12 peptide: Ac-PDRKAAVSEWQQ-NH2
Source text: as §3, §4

[10] = target: T13, BC2T Q12D library peptide (human); assay: as above
T13 peptide: Ac-PDRKAAVSHWQD-NH2
Source text: as §3, §4

[11] = target: T14, BC2T Q11E library peptide (human); assay: as above
T14 peptide: Ac-PDRKAAVSHWEQ-NH2
Source text: as §3, §4

BC2T H9D library peptide = target: T15, BC2T H9D library peptide (human); assay: as above
T15 peptide: Ac-PDRKAAVSDWQQ-NH2
Source text: as §3, §4

[12] = target: T16, mCherry-Vimentin with C-terminal BC2 tag (mCherry-VIMBC2T) (human, UniProt P08670 1-466); assay: Western blot probed with BC2-NbAF488
T16 construct: Expressed in HEK293T or HeLa cells; also called mCherry-VimentinBC2T; not shown: mCherry fluorescent protein

[13] = target: T2, eGFP-PCNA with C-terminal BC2 tag …; assay: Western blot probed with BC2-NbAF488
[14] = target: T17, mCherry-Vimentin (untagged) (UniProt P08670 1-466); assay: Western blot probed with BC2-NbAF488
T17 construct: Control without the BC2 tag; not shown: mCherry fluorescent protein
T17 sequence (P08670 whole entry): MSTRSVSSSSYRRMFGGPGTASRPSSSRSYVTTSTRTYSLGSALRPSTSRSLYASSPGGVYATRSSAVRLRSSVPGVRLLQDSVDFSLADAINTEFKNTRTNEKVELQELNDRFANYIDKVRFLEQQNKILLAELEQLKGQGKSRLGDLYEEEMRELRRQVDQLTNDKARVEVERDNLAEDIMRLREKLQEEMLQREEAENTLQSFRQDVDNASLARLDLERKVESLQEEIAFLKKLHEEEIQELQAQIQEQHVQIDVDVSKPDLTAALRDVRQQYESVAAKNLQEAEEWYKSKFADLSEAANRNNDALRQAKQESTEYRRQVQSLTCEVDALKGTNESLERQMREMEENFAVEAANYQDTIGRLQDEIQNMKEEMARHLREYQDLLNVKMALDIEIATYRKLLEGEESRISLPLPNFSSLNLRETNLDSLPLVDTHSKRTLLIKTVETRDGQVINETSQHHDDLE

T2 sequence (P12004 other isoform, or with tags, fused parts or gaps limits assumed): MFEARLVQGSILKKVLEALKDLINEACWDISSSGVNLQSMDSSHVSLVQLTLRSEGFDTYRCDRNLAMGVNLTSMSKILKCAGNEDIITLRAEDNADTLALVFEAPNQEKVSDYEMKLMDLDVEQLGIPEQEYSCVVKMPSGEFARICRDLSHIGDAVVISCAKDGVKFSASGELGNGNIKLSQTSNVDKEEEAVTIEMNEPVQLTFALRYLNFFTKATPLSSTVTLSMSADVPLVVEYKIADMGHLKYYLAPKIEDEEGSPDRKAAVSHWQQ
T16 sequence (P08670 other isoform, or with tags, fused parts or gaps): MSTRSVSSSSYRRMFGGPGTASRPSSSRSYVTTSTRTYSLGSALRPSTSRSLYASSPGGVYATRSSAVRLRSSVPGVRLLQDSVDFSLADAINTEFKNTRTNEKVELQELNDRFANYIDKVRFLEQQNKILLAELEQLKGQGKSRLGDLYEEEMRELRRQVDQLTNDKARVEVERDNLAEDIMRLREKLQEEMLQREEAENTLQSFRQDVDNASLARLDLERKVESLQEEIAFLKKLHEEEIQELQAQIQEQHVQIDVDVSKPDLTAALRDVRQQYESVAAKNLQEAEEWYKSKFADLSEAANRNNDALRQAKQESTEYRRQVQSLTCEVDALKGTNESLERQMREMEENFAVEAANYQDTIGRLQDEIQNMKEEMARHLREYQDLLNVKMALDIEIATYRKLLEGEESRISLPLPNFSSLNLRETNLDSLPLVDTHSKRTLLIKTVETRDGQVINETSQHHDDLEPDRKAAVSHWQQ

- binding result [1]: no binding
B1: BC2-NbC50A_C102S (VHH)
VHH: QVQLVESGGGLVQPGGSLTLSCTASGFTLDHYDIGWFRQAPGKEREGVSAINNSDDDTYYADSVKGRFTIFMDNAKDTVYLQMNSLKPEDTAIYYCAEARGSKRGRYEYDFWGQGTQVTVSS
notes: Mutant without the additional disulfide bond between CDR3 and FR2

- binding result [2]: binds
B2: BC2-NbATTO647 (VHH)
VHH: QVQLVESGGGLVQPGGSLTLSCTASGFTLDHYDIGWFRQAPGKEREGVSCINNSDDDTYYADSVKGRFTIFMDNAKDTVYLQMNSLKPEDTAIYYCAEARGCKRGRYEYDFWGQGTQVTVSS
modifications: Atto647 coupled chemically with the NHS-activated dye (sites not given)
notes: also called fluorescently labeled BC2-Nb (ATTO647); not shown: C-terminal 6xHis-tag added by the pHEN6 vector

- Kd [3]: 2.6 nM
- koff [3]: 0.0005 s⁻¹
- kon [3]: 190000 M⁻¹ s⁻¹
- Kd [4]: 0.7 nM
- koff [4]: 6.8e-05 s⁻¹
- kon [4]: 92000 M⁻¹ s⁻¹
- Kd [5]: 1.9 nM
- koff [5]: 0.0002 s⁻¹
- kon [5]: 110000 M⁻¹ s⁻¹
B3: BC2 nanobody (BC2-Nb) (VHH)
VHH: QVQLVESGGGLVQPGGSLTLSCTASGFTLDHYDIGWFRQAPGKEREGVSCINNSDDDTYYADSVKGRFTIFMDNAKDTVYLQMNSLKPEDTAIYYCAEARGCKRGRYEYDFWGQGTQVTVSS
notes: Alpaca VHH, 122 aa; in solution at 5-50 nM in the BLI assay

- ratio (BC2T S8D library peptide): 0.9
- ratio (BC2T S8E library peptide): 1
- ratio [6]: 0.6
- ratio [7]: 0.7
- ratio [8]: 1.1
- ratio [9]: 1
- ratio (BC2T H9E library peptide): 0.6
- ratio [10]: 0.9
- ratio [11]: 0.5
- ratio (BC2T H9D library peptide): 0.5
B4: BC2-Nb(R106S) (VHH)
VHH: QVQLVESGGGLVQPGGSLTLSCTASGFTLDHYDIGWFRQAPGKEREGVSCINNSDDDTYYADSVKGRFTIFMDNAKDTVYLQMNSLKPEDTAIYYCAEARGCKRGSYEYDFWGQGTQVTVSS
notes: Headlock mutant; immobilized on beads in the library pulldown

- binding result [12]: binds
- binding result [13]: binds
- binding result [14]: no binding
B5: BC2-NbAF488 (VHH)
VHH: QVQLVESGGGLVQPGGSLTLSCTASGFTLDHYDIGWFRQAPGKEREGVSCINNSDDDTYYADSVKGRFTIFMDNAKDTVYLQMNSLKPEDTAIYYCAEARGCKRGRYEYDFWGQGTQVTVSS
modifications: AlexaFluor488 coupled chemically with the NHS-activated dye (sites not given)
notes: also called BC2-Nb488; fluorescently labeled BC2-Nb (AlexaFluor488); not shown: C-terminal 6xHis-tag added by the pHEN6 vector
